The values below come from patent US20110152166A1, “METHOD OF MODULATION OF PROTEIN PHOSPHORYLATION-DEPENDENT CONFORMATIONAL TRANSITIONS WITH LOW MOLECULAR WEIGHT COMPOUNDS” (priority 2006, published 2011).

One test has as its target GST-S6K11-365 (Rattus norvegicus, UniProt P67999). Kind of test: Surface plasmon resonance, S6K1 binding to tail peptides. Set-up: made in house; host or cells: COS cells (printed 'COST'), co-transfected with pCMV5-myc-PDK1. The procedure: (§1) FIG. 13. The tail phosphate synergistically enhances the ability of the HM phosphate to activate S6K, dependent on the tail phosphate-binding site. (A) The kinase activity of purified kinase domain of S6K1 (S6K11-364), pre-phosphorylated by PDK1 in the activation loop, was determined in the presence of increasing concentrations of synthetic S6K1 tail peptide (residues 366-395) that was either non-phosphorylated (S371/T389), phosphorylated at Ser371 (pS371/T389) or Thr389 (5371/pT389) or phosphorylated at both sites (pS371/pT389). (B) The kinase activity of S6K11-364 and S6K11-364K144N, either pre-phosphorylated or not by PDK1, was determined in the absence or presence of 90 μM S371/pT389 or pS371/pT389. (C) pS371/pT389 S6K1 tail peptide was biotinylated and used to coat streptavidin Sensor Chips. The chips were thereafter analyzed for binding to purified GST-S6K11-365 or GST-56K11-365K144N. (A-C) Experiments were repeated at least 3 times and activity data (expressed as percent) are means±SD.
Sixty 146 cm^2 dishes with COST cells were co-transfected with pEBG-2T-S6K1-365 and pCMV5-myc-PDK1 (ratio 3:1) using calcium phosphate precipitation or with pEBG-2T-PKCζ and pCMV5-myc-PDK1 (ratio 3:1) using Fugene HD according to the manufacturers Instructions. Two days after transfection, the cells were harvested in lysis buffer as described above. […]
(SPR reads the build-up and loss of mass on a sensor chip optically.)

The next test has as its target T1, S6K11-364K144N (Rattus norvegicus, UniProt P67999, K167N).
T1 construct: Purified HA-S6K1-364 was incubated with synthetic S6K1 (rat) tail peptides; made in house; host or cells: COS7; anti-HA immunoprecipitate
As to the kind of experiment: S6K1 in vitro reconstitution kinase assay with tail peptides. The format is biochemical. As to conditions: peptide 90 μM. The protocol:
as §1
We established an in vitro reconstitution assay that could test a direct activation of the AGC kinase domain by the tail phosphate and characterize its cooperation with the HM and activation loop phosphates. […] Subsequently, the kinase activity of S6K11-364 was determined. […]

Chain of GST-S6K11-365 (P67999 24-388): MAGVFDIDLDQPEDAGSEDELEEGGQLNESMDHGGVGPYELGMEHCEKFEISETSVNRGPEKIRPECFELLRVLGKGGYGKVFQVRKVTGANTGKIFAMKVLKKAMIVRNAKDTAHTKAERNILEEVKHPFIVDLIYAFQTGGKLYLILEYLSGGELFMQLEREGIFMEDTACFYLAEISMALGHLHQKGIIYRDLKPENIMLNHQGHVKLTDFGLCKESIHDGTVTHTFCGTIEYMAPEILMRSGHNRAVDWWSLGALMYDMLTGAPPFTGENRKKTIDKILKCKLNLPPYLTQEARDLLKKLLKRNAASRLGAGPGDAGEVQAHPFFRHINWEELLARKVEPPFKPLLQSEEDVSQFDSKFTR
T1 sequence (P67999 24-387 K167N): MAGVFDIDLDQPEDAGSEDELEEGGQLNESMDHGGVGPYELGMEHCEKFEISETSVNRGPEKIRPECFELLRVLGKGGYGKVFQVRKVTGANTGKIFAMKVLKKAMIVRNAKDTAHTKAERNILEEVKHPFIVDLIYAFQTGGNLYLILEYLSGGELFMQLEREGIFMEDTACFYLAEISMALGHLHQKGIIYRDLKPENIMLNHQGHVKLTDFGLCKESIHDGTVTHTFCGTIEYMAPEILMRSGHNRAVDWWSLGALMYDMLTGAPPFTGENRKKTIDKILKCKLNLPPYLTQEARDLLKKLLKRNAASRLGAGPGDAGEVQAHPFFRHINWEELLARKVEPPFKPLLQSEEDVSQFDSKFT

Regarding “S371/T389: synthetic S6K1 tail peptide (residues 366-395), non-phosphorylated”, in the test with GST-S6K11-365, the “specific binding of S6K11-365 or S6K11-365K144N (in words)” value is listed as “No specific binding”. Turning to “S371/pT389: synthetic S6K1 tail peptide (residues 366-395) phosphorylated in the HM”, the “activation of S6K11-364K144N (in words)” value with S6K11-364K144N is “activated normally”.
